# Molecular target: pcd15_mouse Pcdh15 (UniProt Q99PJ1)
# Sequence (Q99PJ1 whole entry): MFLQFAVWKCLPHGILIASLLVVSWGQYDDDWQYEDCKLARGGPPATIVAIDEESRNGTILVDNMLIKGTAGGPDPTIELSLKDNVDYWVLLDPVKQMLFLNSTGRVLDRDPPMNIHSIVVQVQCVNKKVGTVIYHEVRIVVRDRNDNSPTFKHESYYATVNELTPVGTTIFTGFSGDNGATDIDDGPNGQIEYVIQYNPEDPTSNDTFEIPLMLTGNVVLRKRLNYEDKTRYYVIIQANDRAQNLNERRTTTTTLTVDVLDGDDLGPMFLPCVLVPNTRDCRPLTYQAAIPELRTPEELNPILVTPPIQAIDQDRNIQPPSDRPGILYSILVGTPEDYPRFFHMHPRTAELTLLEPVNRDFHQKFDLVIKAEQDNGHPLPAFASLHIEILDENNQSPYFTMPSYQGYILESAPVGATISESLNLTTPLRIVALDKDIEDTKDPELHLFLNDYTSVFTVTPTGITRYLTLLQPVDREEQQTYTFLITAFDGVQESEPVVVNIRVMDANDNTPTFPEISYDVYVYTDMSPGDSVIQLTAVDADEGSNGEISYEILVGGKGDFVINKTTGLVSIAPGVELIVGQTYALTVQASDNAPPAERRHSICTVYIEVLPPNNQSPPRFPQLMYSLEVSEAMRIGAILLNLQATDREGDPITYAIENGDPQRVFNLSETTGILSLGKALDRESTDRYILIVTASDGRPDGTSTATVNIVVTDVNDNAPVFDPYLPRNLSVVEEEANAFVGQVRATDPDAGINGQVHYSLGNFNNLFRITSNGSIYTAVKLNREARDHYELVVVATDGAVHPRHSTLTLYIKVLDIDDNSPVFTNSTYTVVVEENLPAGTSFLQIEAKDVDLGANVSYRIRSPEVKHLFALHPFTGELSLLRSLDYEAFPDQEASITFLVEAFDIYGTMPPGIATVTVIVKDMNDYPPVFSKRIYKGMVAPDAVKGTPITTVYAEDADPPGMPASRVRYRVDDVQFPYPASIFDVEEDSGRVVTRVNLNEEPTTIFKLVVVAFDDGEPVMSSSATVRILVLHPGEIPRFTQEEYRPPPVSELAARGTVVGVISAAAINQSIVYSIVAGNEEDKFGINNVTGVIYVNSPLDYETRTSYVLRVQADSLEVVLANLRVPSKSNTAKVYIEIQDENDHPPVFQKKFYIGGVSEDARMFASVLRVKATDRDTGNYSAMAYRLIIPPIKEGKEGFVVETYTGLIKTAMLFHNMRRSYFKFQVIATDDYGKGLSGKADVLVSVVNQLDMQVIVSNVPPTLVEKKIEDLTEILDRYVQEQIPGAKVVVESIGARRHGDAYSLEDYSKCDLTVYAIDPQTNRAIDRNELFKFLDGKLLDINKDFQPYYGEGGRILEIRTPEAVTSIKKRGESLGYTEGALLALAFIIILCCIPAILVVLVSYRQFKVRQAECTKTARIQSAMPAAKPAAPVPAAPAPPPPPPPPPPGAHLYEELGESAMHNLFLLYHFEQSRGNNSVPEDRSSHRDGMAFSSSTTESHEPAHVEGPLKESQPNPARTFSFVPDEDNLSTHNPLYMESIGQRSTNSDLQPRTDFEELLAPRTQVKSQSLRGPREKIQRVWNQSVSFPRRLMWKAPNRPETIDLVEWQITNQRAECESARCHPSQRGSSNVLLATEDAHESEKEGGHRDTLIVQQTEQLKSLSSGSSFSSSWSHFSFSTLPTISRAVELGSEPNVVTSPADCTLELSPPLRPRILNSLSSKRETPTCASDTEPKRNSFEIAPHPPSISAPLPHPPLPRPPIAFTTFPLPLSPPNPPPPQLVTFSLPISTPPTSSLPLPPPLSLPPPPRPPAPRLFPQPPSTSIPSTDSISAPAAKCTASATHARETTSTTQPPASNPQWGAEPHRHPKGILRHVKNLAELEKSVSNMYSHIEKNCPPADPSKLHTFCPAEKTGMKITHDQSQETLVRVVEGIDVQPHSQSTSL
row,effect of a mutation on the interaction,Substance
1,decreasing interaction,"Cadherin-23 (Mus musculus), Q99PF4-1 D124G"
2,decreasing interaction,"Cadherin-23 (Mus musculus), Q99PF4-1 E737V"
3,decreasing interaction,"Cadherin-23 (Mus musculus), Q99PF4-1 R1060W"

# From IntAct's records for PubMed 19270079
